Results published in patent publication US20250382344A1, “Soluble GLP1/GIP/NPY2 Receptor Triple Agonists” (Boehringer Ingelheim International GmH, priority 2024, published 2025).
Changes are numbered by the printed parent chain. *1 amine or outer side, *2 acyl side, *3 side chain or, on linkers, in order; H or OH if unused. Where no end group is shown, it is not given here. Side-chain parts run from the residue outwards. [ ]: non-standard residue; d: D form. The star is where a group is joined. C20 diacid = O=C(O)CCCCCCCCCCCCCCCCCCC(=O)*; γGlu = O=C(O)[C@H](CCC(=O)[*:2])N[*:1]; Aib = CC(C)(N)C(=O)O

B1: Compound 27 (peptide)
peptide: YXEGTFTSDYSIXLEKQAQXAFVRHLINKLTRQRY
modifications: Aib at 2, 13, 20; Lys29 epsilon-amino acylated with C20DA-gGlu-gGlu-gGlu-gGlu-gGlu-gGlu-eLys; C-terminal amide
B2: Compound 45 (peptide)
peptide: B1 peptide with A21E
modifications: Aib at 2, 13, 20; Lys29 epsilon-amino acylated with C18DA-gGlu-gGlu-gGlu-gGlu-gGlu-AHX; C-terminal amide
B3: Compound 67 (peptide)
peptide: B1 peptide with E15D, L30X
modifications: Aib at 2, 20, 30; aMeL at 13; Lys29 epsilon-amino acylated with C18DA-gGlu-gGlu-gGlu-gGlu-gGlu-gGlu-eLys; C-terminal amide
B4: Compound 36 (peptide)
peptide: B1 peptide with A18E, L30X
modifications: Aib at 2, 13, 20, 30; Lys29 epsilon-amino acylated with C18DA-gGlu-gGlu-gGlu-gGlu-gGlu-gGlu-eLys; C-terminal amide
B5: Compound 37 (peptide)
peptide: B1 peptide with V23L, L30X
modifications: Aib at 2, 13, 20, 30; Lys29 epsilon-amino acylated with C18DA-gGlu-gGlu-gGlu-gGlu-gGlu-gGlu-eLys; C-terminal amide
B6: Compound 41 (peptide)
peptide: B1 peptide with L30I
modifications: Aib at 2, 13, 20; Lys29 epsilon-amino acylated with C18DA-gGlu-gGlu-gGlu-gGlu-gGlu; C-terminal amide
B7: Compound 28 (peptide)
peptide: B1 peptide with Q17E, L30X
modifications: Aib at 2, 13, 20, 30; Lys29 epsilon-amino acylated with C20DA-gGlu-gGlu-gGlu-gGlu-gGlu-gGlu-eLys; C-terminal amide

target: human GLP-1 receptor (human, UniProt P43220 24-463); assay: cell-based or functional assay

| Binder | EC50, CreLuc reporter, 0.5% hP [nM] | EC50, CreLuc reporter, 100% hP [nM] |
| --- | --- | --- |
| Y[Aib]EGTFTSDYSI[Aib]LEKQAQ[Aib]AFVRHLINK([γGlu-γGlu-γGlu-γGlu-γGlu-γGlu-C20 diacid])[Aib]TRQRY-NH2 [Compound 3] | 3 | 13.9 |
| Y[Aib]EGTFTSDYSI[Aib]LEKQAQ[Aib]AFVRHLINK([γDab-γGlu-γGlu-γGlu-γGlu-γGlu-γGlu-C20 diacid])[Aib]TRQRY-NH2 [Compound 46] | – | 5.3 |
| B1 | – | 20.8 |
| B2 | 0.5 | – |
| B3 | 0.1 | 0.6 |
| B4 | – | 16.9 |
| B5 | 5.8 | 9.1 |
| B6 | 0.9 | 5 |
| B7 | 8 | 14.8 |

target: T1, human neuropeptide Y2 receptor (human, UniProt P49146 1-381); assay: cell-based or functional assay
T1 sequence (looked up): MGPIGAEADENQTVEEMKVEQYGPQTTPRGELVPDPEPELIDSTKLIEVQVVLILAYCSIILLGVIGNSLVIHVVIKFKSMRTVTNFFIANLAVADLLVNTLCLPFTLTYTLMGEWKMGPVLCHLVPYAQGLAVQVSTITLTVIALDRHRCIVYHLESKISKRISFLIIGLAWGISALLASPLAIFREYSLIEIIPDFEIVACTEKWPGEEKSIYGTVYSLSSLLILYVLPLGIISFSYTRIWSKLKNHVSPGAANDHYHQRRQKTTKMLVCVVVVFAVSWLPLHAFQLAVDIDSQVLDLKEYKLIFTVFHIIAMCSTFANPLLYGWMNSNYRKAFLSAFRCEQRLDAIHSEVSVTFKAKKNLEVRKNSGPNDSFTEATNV

| Binder | EC50, CreLuc reporter, 0.5% hP [nM] | EC50, CreLuc reporter, 100% hP [nM] |
| --- | --- | --- |
| Y[Aib]EGTFTSDYSI[Aib]LEKQAQ[Aib]AFVRHLINK([γGlu-γGlu-γGlu-γGlu-γGlu-γGlu-C20 diacid])[Aib]TRQRY-NH2 [Compound 3] | 37.9 | 147 |
| Y[Aib]EGTFTSDYSI[Aib]LEKQAQ[Aib]AFVRHLINK([γDab-γGlu-γGlu-γGlu-γGlu-γGlu-γGlu-C20 diacid])[Aib]TRQRY-NH2 [Compound 46] | 28.4 | 70.5 |
| B1 | – | 69.1 |
| B2 | 19.8 | 224 |
| B3 | 18.1 | 112 |
| B4 | 30.1 | 95.2 |
| B5 | 11.9 | 41.3 |
| B6 | 49.2 | 71.3 |
| B7 | 24 | 297 |

target: T2, human GIP receptor (human, UniProt P48546 22-466); assay: cell-based or functional assay
T2 sequence (looked up): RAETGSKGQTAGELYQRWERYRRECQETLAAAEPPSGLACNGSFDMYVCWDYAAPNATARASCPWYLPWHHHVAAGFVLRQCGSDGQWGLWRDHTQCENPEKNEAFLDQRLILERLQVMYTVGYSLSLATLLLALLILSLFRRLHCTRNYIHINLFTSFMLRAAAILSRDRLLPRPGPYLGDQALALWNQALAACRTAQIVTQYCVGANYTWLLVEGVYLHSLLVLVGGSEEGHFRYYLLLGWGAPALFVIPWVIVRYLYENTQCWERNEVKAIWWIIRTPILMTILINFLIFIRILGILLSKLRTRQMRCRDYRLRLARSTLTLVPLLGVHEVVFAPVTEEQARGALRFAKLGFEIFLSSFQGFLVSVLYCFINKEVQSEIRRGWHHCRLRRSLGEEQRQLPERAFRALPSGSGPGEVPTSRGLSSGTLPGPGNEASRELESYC

| Binder | EC50, CreLuc reporter, 0.5% hP [nM] | EC50, CreLuc reporter, 100% hP [nM] |
| --- | --- | --- |
| Y[Aib]EGTFTSDYSI[Aib]LEKQAQ[Aib]AFVRHLINK([γGlu-γGlu-γGlu-γGlu-γGlu-γGlu-C20 diacid])[Aib]TRQRY-NH2 [Compound 3] | 0.7 | – |
| Y[Aib]EGTFTSDYSI[Aib]LEKQAQ[Aib]AFVRHLINK([γDab-γGlu-γGlu-γGlu-γGlu-γGlu-γGlu-C20 diacid])[Aib]TRQRY-NH2 [Compound 46] | 0.8 | 7.2 |
| B1 | 0.6 | 16.3 |
| B2 | 0.3 | 19.6 |
| B3 | 0.1 | 1.7 |
| B4 | 8.8 | 41.4 |
| B5 | – | 15.5 |
| B6 | 0.3 | 7.1 |
| B7 | 19.3 | 208 |
